These results are taken from patent US20240141028A1 (RHODE ISLAND HOSPITAL, published 2024).

In the assay the target is T1, PfGARP aa 443-459 (…) (Plasmodium falciparum).
T1 construct: Stood on the microarray as overlapping 15-mer peptides, not as one 17-mer
In words: microarray of overlapping 15-mer peptides.

Source text: The peptides overlapped by a single amino acid and were printed in duplicate, framed by HA control peptides.
For epitope mapping, a custom 15-mer peptide microarray was designed and printed. […] The peptides overlapped by a single amino acid and were printed in duplicate, framed by HA control peptides. […] A duplicate array was probed with polyclonal, monospecific anti-PfGARP-A mouse antibodies (red).

B1: recombinant monoclonal anti-PfGARP (rec mAb7899) (antibody, V domains shown)
VH: EAQLQQSGTELVKPGASVKLSCTASGFYIKDTYIHWVRQRPVQGLEWIGRIDPANYDTKYDPKFQGKATITADTSSNTAYLQLINLTPEDTVVYYCTSFGGTKLRFAYWGQGTLVTVSA
VL: NIMMTQSPSSLAVSAGEEVTMSCKSSQSVLYSSNQRNYLAWFQQKSGQSPKLLIYWASTRESGVPDRFTGSGSGTDFTLTISNLQVEDLAVYYCLQHFSSWTFGGGTKLEIK
notes: also called recombinant mAb7899; recombinant mAb
As for B1, the binding result was “binds”.
